These results are taken from article PMC5042466, “Irreversible Inhibition of Glutathione S-Transferase by Phenethyl Isothiocyanate (PEITC), a Dietary Cancer Chemopreventive Phytochemical” (PLoS ONE, 2016).

This data set concerns the molecule itself. Put plainly: crystal structure; hGSTA1 (13 mg/ml) mixed with GSH and PEITC, 6 h at 4°C; sitting drop, 20% PEG 3350, 0.2 M sodium acetate; 1.93 Å, space group C2.

B1: human alpha class glutathione S-transferase of subunit type 1 (hGSTA1), Cys112-PEITC adduct, with GS-PEITC bound (enzyme)
chain: AEKPKLHYFNARGRMESTRWLLAAAGVEFEEKFIKSAEDLDKLRNDGYLMFQQVPMVEIDGMKLVQTRAILNYIASKYNLYGKDIKERALIDMYIEGIADLGEMILLLPVCPPEEKDAKLALIKEKIKNRYFPAFEKVLKSHGQDYLVGNKLSRADIHLVELLYYVEELDSSLISSFPLLKALKTRISNLPTVKKFLQPGSPRKPPMDEKSLEEARKIFRF
modifications: Cys112 side chain covalently modified by PEITC (phenethyl isothiocyanate)
notes: glutathione S-transferase alpha 1 (hGSTA1), human; In the crystal the active site holds the small-molecule product GS-PEITC; also called hGSTA1-PEITC; hGSTA1:GS-PEITC; source: prepared as described [11,12]
For the protein B1, the binding result is “binds”.
